{"source": "patent US20220401475A1", "about": "(Memorial Sloan Kettering, published 2022)", "binders": {"B1": {"name": "22-BBζ CAR (CD22-BBζ-DsRed, m971 CD22-specific scFv) (other)", "chain": "QVQLQQSGPGLVKPSQTLSLTCAISGDSVSSNSAAWNWIRQSPSRGLEWLGRTYYRSKWYNDYAVSVKSRITINPDTSKNQFSLQLNSVTPEDTAVYYCAREVTGDLEDAFDIWGQGTMVTVSSGGGGSDIQMTQSPSSLSASVGDRVTITCRASQTIWSYLNWYQQRPGKAPNLLIYAASSLQSGVPSRFSGRGSGTDFTLTISSLQAEDFATYYCQQSYSIPQTFGQGTKLEIKAAAPTTTPAPRPPTPAPTIASQPLSLRPEACRPAAGGAVHTRGLDFACDIYIWAPLAGTCGVLLLSLVITLYCNKRGRKKLLYIFKQPFMRPVQTTQEEDGCSCRFPEEEEGGCELRVKFSRSADAPAYQQGQNQLYNELNLGRREEYDVLDKRRGRDPEMGGKPRRKNPQEGLYNELQKDKMAEAYSEIGMKGERRRGKGHDGLYQGLSTATKDTYDALHMQALPPR", "notes": "Chimeric antigen receptor on human T cells"}}, "target": "T1, B-cell maturation antigen (BCMA) (human, UniProt Q02223 1-184)", "T1 construct": "whole, on cells", "T1 sequence (looked up)": "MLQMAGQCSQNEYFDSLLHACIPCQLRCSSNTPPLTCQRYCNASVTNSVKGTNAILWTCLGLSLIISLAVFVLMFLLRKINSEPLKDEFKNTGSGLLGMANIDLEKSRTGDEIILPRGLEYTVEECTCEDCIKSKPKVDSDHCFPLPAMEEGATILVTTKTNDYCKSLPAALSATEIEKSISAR", "assay": "Flow cytometric trogocytosis assay: 1:1 co-culture of CAR T cells with KMS-12-BM for 0, 1, 2 and 4 h. BCMA loss from the tumour cells (upper panel) and BCMA gain on CAR T cells (lower panel). No concentration axis.", "data": [{"binder": "B1", "values": [{"measurement": "binding result", "result": "no binding"}]}]}
